Results reported in the Human Domainome abundance scans (Beltran et al. 2025).

B1: POU domain, class 3, transcription factor 3, residues 320 to 388; numbered along this chain, P20264 (parent)
chain: DDLEQFAKQFKQRRIKLGFTQADVGLALGTLYGNVFSQTTICRFEALQLSFKNMCKLKPLLNKWLEEAD

Variants of: B1
Assay: abundance fitness (aPCA) (normalised: wild type 0, dead -1); higher = more abundant; growth selection in yeast, the domain comes from the species named
Conditions: Homo sapiens

Abundance fitness, by site and new letter:
F19: L -0.202; P -0.625; R -0.466; S -0.848; V -0.236; W -0.408
T20: A -0.556; G -0.556; K -0.738; L -0.828; P -0.627; R -0.908; S -0.079; V -1.02; W -0.862
Q21: A -0.281; C -0.278; E -0.061; G -0.629; H -0.08; I 0.145; K -0.298; L -0.271; M -0.489; P -0.23; R -0.184; S -0.242; T -0.507; V -0.017; W -0.284; Y -0.147
A22: E -0.17; F -0.293; G -0.25; H 0.228; I -0.392; K 0.103; L -0.49; P -0.849; Q 0.036; R -0.163; S -0.243; T -0.162; V -0.513; W -0.83
D23: E -0.023; F -0.998; G -0.185; I -0.704; K -0.764; M -0.802; N -0.687; P -1.04; Q 0.039; R -0.187; S -0.743; V -0.937; Y -0.778
V24: A -0.677; C -0.531; D -0.882; F 0.197; I -0.766; K -0.899; L -0.679; N -0.74; P -0.673; R -0.788; S -0.941; W -1.05
G25: A 0.161; C 0.103; M -0.754; N -0.753; Q -0.682; R -0.3; S -0.069; T -0.36; V -0.815
L26: A 0.005; C -0.045; D -0.016; E 0.133; G -0.227; K -0.076; M 0.058; Q 0.017; R 0.128; S 0.071; T -0.515; V -0.147; W -0.24; Y 0.035
A27: C 0.232; D -0.613; E -0.375; G -0.262; H -0.022; I -0.711; K 0.021; L -0.456; M -0.427; P -0.8; Q 0.228; R 0.031; S -0.239; V -0.509; W -0.101; Y -0.502
L28: A -0.639; G -0.943; K -0.682; M -0.594; N -0.71; Q -0.747; R -1.02; S -0.94; T -0.8; V -0.703; W -0.981
G29: A 0.056; C -0.594; D -0.736; E -0.02; F -0.388; H -0.154; I -0.464; K -0.01; L -0.929; M -0.427; N 0.041; P -0.658; Q -0.554; R 0.02; S 0.092; T -0.004; V -0.468; W -0.478; Y -0.108
T30: A 0.063; D -0.062; E -0.177; F -0.514; G -0.013; H -0.232; I -0.446; K 0.336; L -0.325; M -0.077; N -0.348; P -0.115; Q 0.1; R -0.08; S 0.01; V -0.034; W -0.421; Y -0.459
L31: A -0.299; C -0.237; D -0.017; F -0.023; G -0.565; H -0.229; I 0.076; K -0.118; M -0.156; P -0.551
